The values that follow come from publication PMC12060307.

In series [1] the target is Japanese soil-borne wheat mosaic virus movement protein (MP^JSBWMV), as fusions MP^JSBWMV:RFP and MP^JSBWMV:GFP (Japanese soil-borne wheat mosaic virus). Briefly: FRET or BRET; FRET-FLIM (two-photon, time-correlated single-photon counting) in agro-inoculated N. benthamiana epidermal cells, at plasmodesmata; donor MP:GFP, acceptor RFP fusion; FRET efficiency above 5% considered as interaction. Background: BRET reads energy transfer from a luciferase to a nearby fluorophore.

For series [2], the system named is MPJSBWMV:GFP (movement protein, GFP fusion, in leaf extract) (Japanese soil-borne wheat mosaic virus). Briefly: MST. Particulars: MST in leaf extract: extraction in 2x MST buffer (100 mM Tris-HCl pH 7.5, 300 mM NaCl, 10 mM MgCl2, 0.1% Tween-20, 0.1 mg/mL BSA, 10 mM DTT, protease …).

Take “Japanese soil-borne wheat mosaic virus movement protein (MP^JSBWMV), as fusions MP^JSBWMV:RFP and MP^JSBWMV:GFP (natural protein)”: in series [1], the % FRET worked out at 19.1% and the fluorescence lifetime of the donor MP:GFP was 2 ns.
What is called Kd is the constant that tells how readily two partners part at equilibrium. Higher therefore signals weaker binding. RNA1JSBWMV gave a Kd in series [2] of 15.4 nM.
In series [2], RNA2JSBWMV came in with a Kd of 4.5 nM.
Still for that read-out and setting: next, “tRNA1JSBWMV (tRNA-like structure of RNA1)”: 16.2 nM.
On the same count and under the same terms, the result for “tRNA2JSBWMV (tRNA-like structure of RNA2)” reads 28.3 nM.
